Values of other authors, collected in article PMC7226344.

How the values were obtained:
Cav3.2 (Homo sapiens) = Cav3.2 (Homo sapiens) (UniProt O95180)
[1] = target: Cav3.1 (Rattus norvegicus) (UniProt O54898)
UniProt O54898, sequence (O54898 whole entry): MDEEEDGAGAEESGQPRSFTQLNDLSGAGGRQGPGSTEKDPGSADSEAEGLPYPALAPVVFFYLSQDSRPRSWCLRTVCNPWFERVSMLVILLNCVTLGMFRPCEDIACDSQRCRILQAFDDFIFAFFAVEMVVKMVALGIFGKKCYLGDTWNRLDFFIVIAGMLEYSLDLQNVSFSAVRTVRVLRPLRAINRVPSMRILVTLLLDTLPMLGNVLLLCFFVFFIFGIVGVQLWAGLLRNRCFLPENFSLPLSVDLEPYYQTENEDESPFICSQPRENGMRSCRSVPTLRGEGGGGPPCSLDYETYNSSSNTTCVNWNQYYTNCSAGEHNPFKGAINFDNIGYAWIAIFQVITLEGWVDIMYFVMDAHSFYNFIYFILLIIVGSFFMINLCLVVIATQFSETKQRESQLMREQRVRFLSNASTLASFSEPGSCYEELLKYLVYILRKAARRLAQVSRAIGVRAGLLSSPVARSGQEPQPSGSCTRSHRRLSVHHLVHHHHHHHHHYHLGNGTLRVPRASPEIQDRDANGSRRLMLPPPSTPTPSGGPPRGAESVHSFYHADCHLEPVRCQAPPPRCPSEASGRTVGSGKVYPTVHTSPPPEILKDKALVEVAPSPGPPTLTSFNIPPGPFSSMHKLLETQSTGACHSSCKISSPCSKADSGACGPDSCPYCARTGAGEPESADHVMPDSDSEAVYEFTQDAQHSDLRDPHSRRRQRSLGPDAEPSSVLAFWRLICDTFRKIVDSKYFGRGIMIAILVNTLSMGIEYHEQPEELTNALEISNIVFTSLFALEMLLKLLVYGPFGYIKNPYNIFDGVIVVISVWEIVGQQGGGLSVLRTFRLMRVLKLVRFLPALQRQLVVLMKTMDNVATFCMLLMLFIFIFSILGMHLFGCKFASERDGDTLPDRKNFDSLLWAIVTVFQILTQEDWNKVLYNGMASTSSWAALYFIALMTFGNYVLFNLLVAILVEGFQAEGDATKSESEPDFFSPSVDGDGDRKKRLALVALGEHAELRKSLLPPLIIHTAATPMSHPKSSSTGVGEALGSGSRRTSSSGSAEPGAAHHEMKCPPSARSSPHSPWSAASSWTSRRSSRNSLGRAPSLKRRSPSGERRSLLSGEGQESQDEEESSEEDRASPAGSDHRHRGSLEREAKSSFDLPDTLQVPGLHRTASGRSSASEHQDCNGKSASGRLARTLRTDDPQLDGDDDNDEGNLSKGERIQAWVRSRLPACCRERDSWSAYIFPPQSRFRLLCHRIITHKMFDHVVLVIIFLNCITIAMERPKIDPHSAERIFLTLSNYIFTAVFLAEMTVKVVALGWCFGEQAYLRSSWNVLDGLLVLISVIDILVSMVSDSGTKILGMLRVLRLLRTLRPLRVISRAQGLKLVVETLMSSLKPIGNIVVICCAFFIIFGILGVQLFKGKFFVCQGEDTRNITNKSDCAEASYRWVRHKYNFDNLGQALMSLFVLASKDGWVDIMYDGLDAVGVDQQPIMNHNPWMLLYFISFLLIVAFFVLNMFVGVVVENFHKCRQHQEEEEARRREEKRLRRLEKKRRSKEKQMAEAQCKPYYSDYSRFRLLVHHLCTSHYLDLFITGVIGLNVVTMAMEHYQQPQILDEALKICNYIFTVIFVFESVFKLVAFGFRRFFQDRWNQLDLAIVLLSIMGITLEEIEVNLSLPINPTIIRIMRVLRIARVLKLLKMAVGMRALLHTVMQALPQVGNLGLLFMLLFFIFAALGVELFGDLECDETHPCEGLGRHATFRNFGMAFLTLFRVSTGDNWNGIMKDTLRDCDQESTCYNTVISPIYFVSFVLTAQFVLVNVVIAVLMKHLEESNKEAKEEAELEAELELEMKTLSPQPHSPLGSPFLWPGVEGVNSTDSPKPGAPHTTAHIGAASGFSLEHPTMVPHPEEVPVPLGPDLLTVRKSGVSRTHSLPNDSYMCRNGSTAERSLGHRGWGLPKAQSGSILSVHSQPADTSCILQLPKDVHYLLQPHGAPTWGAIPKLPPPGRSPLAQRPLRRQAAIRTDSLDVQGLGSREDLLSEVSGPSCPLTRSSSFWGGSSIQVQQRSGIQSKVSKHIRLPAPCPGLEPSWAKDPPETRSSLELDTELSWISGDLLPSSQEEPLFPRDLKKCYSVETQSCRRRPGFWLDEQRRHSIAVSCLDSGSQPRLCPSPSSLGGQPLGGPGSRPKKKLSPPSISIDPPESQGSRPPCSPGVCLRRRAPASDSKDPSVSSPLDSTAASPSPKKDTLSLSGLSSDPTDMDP

UniProt O95180, sequence (O95180 whole entry): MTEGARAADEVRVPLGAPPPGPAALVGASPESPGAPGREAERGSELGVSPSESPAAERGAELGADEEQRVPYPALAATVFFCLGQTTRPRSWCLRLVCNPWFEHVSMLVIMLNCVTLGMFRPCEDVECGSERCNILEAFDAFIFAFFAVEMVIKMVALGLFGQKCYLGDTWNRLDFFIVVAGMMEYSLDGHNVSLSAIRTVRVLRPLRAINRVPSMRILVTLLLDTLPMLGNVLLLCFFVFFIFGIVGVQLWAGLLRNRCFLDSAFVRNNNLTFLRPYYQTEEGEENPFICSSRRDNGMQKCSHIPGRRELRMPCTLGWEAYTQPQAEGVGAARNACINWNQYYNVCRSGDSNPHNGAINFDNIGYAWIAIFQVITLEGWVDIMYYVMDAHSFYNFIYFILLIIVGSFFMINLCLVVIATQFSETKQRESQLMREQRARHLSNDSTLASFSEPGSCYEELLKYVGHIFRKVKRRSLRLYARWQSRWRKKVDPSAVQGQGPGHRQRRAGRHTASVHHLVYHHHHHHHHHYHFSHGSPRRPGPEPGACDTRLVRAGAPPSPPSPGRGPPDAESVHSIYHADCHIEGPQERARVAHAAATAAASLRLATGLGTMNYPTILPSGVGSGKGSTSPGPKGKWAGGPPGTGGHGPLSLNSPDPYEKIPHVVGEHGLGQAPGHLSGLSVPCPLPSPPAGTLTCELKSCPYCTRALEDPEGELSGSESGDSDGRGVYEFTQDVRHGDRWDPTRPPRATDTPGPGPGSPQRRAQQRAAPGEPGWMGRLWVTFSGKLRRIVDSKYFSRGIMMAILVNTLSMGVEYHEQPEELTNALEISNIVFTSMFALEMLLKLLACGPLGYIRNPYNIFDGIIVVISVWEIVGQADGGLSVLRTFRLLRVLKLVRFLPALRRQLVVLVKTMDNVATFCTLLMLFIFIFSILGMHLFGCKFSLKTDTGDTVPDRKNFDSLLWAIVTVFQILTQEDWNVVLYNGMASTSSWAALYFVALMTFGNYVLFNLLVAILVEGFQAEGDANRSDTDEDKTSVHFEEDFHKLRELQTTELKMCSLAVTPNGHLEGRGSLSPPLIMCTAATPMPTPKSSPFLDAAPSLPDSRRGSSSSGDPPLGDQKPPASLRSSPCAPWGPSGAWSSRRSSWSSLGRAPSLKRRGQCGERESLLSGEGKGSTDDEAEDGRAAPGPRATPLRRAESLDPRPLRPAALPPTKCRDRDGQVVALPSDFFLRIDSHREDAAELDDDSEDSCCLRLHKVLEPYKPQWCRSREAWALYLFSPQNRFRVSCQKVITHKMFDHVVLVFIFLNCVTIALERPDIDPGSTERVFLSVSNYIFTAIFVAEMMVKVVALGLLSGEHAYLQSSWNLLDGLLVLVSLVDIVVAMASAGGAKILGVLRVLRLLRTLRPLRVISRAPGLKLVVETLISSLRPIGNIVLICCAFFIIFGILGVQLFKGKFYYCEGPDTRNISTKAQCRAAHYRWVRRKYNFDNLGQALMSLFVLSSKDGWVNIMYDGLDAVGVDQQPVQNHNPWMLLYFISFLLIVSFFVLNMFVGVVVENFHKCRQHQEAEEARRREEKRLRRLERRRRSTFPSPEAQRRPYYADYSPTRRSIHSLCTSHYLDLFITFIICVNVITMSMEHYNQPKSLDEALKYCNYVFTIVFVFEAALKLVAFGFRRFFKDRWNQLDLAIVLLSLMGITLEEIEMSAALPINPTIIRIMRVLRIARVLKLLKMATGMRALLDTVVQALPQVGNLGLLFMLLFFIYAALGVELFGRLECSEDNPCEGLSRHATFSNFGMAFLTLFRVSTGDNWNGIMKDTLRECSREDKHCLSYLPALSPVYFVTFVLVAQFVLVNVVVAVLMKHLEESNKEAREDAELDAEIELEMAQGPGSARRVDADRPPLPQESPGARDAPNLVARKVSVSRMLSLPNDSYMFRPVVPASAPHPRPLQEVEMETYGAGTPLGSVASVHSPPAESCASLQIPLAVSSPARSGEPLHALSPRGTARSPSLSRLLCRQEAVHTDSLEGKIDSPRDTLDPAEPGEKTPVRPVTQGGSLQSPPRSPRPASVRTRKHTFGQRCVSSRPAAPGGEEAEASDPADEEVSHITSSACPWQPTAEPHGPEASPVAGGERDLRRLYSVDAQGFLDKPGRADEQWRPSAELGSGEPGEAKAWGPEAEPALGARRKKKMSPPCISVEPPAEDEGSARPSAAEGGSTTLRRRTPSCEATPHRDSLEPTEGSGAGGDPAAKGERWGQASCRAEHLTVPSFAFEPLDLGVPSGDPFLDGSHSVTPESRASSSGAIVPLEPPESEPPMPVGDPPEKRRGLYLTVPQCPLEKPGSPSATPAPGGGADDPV

kurtoxin (from UniProt P58910)
Kd (Cav3.2 (Homo sapiens)): 61 nM
Kd [1]: 15 nM
